This is an account of results in patent publication US20220411521A1 (Ablynx, published 2022).

The target of assay [1] is T1, human GITR (human, UniProt Q9Y5U5 26-241).
T1 sequence: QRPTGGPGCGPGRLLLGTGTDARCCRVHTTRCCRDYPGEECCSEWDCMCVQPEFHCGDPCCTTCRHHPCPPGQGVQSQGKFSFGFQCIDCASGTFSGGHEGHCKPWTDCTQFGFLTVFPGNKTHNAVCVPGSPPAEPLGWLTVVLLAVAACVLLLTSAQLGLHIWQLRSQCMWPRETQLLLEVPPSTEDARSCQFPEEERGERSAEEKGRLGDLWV
Put plainly: cell-based or functional assay.

In assay [2] the target is T1, human GITR. Put plainly: cell-based or functional assay. This is another data set of the same source.
Assay [3] deals with T2, human GITR-Fc (Enzo Life Sciences, ALX-522-061-C050) (human, UniProt Q9Y5U5 26-162).
T2 construct: Bought protein; not shown: Fc part of the bought fusion protein; not described
T2 sequence: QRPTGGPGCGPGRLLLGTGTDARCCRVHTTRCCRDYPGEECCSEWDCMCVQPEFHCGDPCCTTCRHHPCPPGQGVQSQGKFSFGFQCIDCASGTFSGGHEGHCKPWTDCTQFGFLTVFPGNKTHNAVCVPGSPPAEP
Put plainly: ProteOn XPR36; human GITR-Fc amine-coupled on GLC chip, Nanobody injected at 6 concentrations. On the procedure: Affinity was determined on the Proteon XPR36. Briefly, after human GITR-Fc (Enzo Life Sciences, ALX-522-061-C050) was immobilized on a GLC chip via amine coupling, a range of 6 concentrations of different monovalent Nanobodies (representing each family) were injected. The Ko values were determined by using the calculated association rate and dissociation rate constants (Table 1) (ProteOn Manager 3.1.0, Version 3.1.0.6 (2011)).

What is called Kd is the concentration at which binding is half-saturated. A high value points to a looser complex. For orientation: koff means the first-order rate constant of dissociation. Low values mean a long-lived complex, high ones a short-lived complex. Usually kon stands for the second-order rate constant of association.

B1: A023100105 (VHH)
chain: DVQLVESGGGVVQPGGSLRLSCAASGSIFSIDSMGWYRQAPGKQRELVAAITSSTNYADSVKGRFTISRDNSKNTVYLQMNSLRPEDTALYYCNLEGQAGWGTALINYWGQGTLVTVSSGGGGSGGGSEVQLVESGGGVVQPGGSLRLSCAASGSIFSIDSMGWYRQAPGKQRELVAAITSSTNYADSVKGRFTISRDNSKNTVYLQMNSLRPEDTALYYCNLEGQAGWGTALINYWGQGTLVTVSSGGGGSGGGSEVQLVESGGGVVQPGGSLRLSCAASGSIFSIDSMGWYRQAPGKQRELVAAITSSTNYADSVKGRFTISRDNSKNTVYLQMNSLRPEDTALYYCNLEGQAGWGTALINYWGQGTLVTVSSGGGGSGGGGSGGGGSGGGGSGGGGSGGGGSGGGGSEVQLVESGGGVVQPGGSLRLSCAASGFTFRSFGMSWVRQAPGKGPEWVSSISGSGSDTLYADSVKGRFTISRDNSKNTLYLQMNSLRPEDTALYYCTIGGSLSRSSQGTLVTVSSA
Consider B1, for which, in the assay with human GITR [1], the “EC50, IFN-γ read-out, human T cell activation assay” value (from here on “EC50, IFN-γ read-out”) amounted to 0.06 nM and the “Maximal efficacy (%), human GITR ligand = 100%, IFN-γ read-out” value (shortened to “Maximal efficacy (%)”) was found to be 97%.

B2: A023100129 (VHH)
chain: DVQLVESGGGVVQPGGSLRLSCAASGSIFSIDSMGWYRQAPGKQRELVAAITSSTNYADSVKGRFTISRDNSKNTVYLQMNSLRPEDTALYYCNLEGQAGWGTALINYWGQGTLVTVSSGGGGSGGGSEVQLVESGGGVVQPGGSLRLSCAASGSIFSIDSMGWYRQAPGKQRELVAAITSSTNYADSVKGRFTISRDNSKNTVYLQMNSLRPEDTALYYCNLEGQAGWGTALINYWGQGTLVTVSSGGGGSGGGSEVQLVESGGGVVQPGGSLRLSCAASGSIFSIDSMGWYRQAPGKQRELVAAITSSTNYADSVKGRFTISRDNSKNTVYLQMNSLRPEDTALYYCNLEGQAGWGTALINYWGQGTLVTVSSGGGGSGGGSEVQLVESGGGVVQPGGSLRLSCAASGSIFSIDSMGWYRQAPGKQRELVAAITSSTNYADSVKGRFTISRDNSKNTVYLQMNSLRPEDTALYYCNLEGQAGWGTALINYWGQGTLVTVSSGGGGSGGGSEVQLVESGGGVVQPGGSLRLSCAASGSIFSIDSMGWYRQAPGKQRELVAAITSSTNYADSVKGRFTISRDNSKNTVYLQMNSLRPEDTALYYCNLEGQAGWGTALINYWGQGTLVTVSSGGGGSGGGGSGGGGSGGGGSGGGGSGGGGSGGGGSEVQLVESGGGVVQPGGSLRLSCAASGFTFRSFGMSWVRQAPGKGPEWVSSISGSGSDTLYADSVKGRFTISRDNSKNTLYLQMNSLRPEDTALYYCTIGGSLSRSSQGTLVTVSSA
Turning to B2, in the assay with human GITR [2], the “EC50, HEK293_NF-κB luc reporter” value amounted to 0.0118 nM and the “Efficacy (%), human GITR ligand = 100%, HEK293_NF-κB luc reporter” value (“Efficacy (%) … HEK293_NF-κB luc reporter” for short) came to 146%. In addition, in the assay with human GITR [1], the “EC50, IFN-γ read-out” value was found to be 0.0515 nM and the “Maximal efficacy (%)” value stood at 108%.

B3: A023100107 (VHH)
chain: DVQLVESGGGVVQPGGSLRLSCAASETIFSIDSMAWYRQAPGKQRELVAAITGGGSPNYADSVKGRFTISSDVSKRTVYLQMNSLRPEDTALYYCNAEGQAGWGTALLDYWGQGTLVTVSSGGGGSGGGSEVQLVESGGGVVQPGGSLRLSCAASETIFSIDSMAWYRQAPGKQRELVAAITGGGSPNYADSVKGRFTISSDVSKRTVYLQMNSLRPEDTALYYCNAEGQAGWGTALLDYWGQGTLVTVSSGGGGSGGGSEVQLVESGGGVVQPGGSLRLSCAASETIFSIDSMAWYRQAPGKQRELVAAITGGGSPNYADSVKGRFTISSDVSKRTVYLQMNSLRPEDTALYYCNAEGQAGWGTALLDYWGQGTLVTVSSGGGGSGGGSEVQLVESGGGVVQPGGSLRLSCAASETIFSIDSMAWYRQAPGKQRELVAAITGGGSPNYADSVKGRFTISSDVSKRTVYLQMNSLRPEDTALYYCNAEGQAGWGTALLDYWGQGTLVTVSSGGGGSGGGGSGGGGSGGGGSGGGGSGGGGSGGGGSEVQLVESGGGVVQPGGSLRLSCAASGFTFRSFGMSWVRQAPGKGPEWVSSISGSGSDTLYADSVKGRFTISRDNSKNTLYLQMNSLRPEDTALYYCTIGGSLSRSSQGTLVTVSSA
B3: in the assay with human GITR [2], the “EC50, HEK293_NF-κB luc reporter” value amounted to 0.0147 nM and the “Efficacy (%) … HEK293_NF-κB luc reporter” value was found to be 147%. In addition, in the assay with human GITR [1], the “EC50, IFN-γ read-out” value came to 0.0646 nM and the “Maximal efficacy (%)” value came to 99.8%.

B4: A023100127 (VHH)
chain: DVQLVESGGGVVQPGGSLRLSCAASGSIFSIDSMGWYRQAPGKQRELVAAITSSTNYADSVKGRFTISRDNSKNTVYLQMNSLRPEDTALYYCNLEGQAGWGTALINYWGQGTLVTVSSGGGGSGGGSEVQLVESGGGVVQPGGSLRLSCAASGSIFSIDSMGWYRQAPGKQRELVAAITSSTNYADSVKGRFTISRDNSKNTVYLQMNSLRPEDTALYYCNLEGQAGWGTALINYWGQGTLVTVSSGGGGSGGGSEVQLVESGGGVVQPGGSLRLSCAASGSIFSIDSMGWYRQAPGKQRELVAAITSSTNYADSVKGRFTISRDNSKNTVYLQMNSLRPEDTALYYCNLEGQAGWGTALINYWGQGTLVTVSSGGGGSGGGSEVQLVESGGGVVQPGGSLRLSCAASGSIFSIDSMGWYRQAPGKQRELVAAITSSTNYADSVKGRFTISRDNSKNTVYLQMNSLRPEDTALYYCNLEGQAGWGTALINYWGQGTLVTVSSGGGGSGGGGSGGGGSGGGGSGGGGSGGGGSGGGGSEVQLVESGGGVVQPGGSLRLSCAASGFTFRSFGMSWVRQAPGKGPEWVSSISGSGSDTLYADSVKGRFTISRDNSKNTLYLQMNSLRPEDTALYYCTIGGSLSRSSQGTLVTVSSA
On to B4, for which, in the assay with human GITR [2], the “EC50, HEK293_NF-κB luc reporter” value is 0.0157 nM and the “Efficacy (%) … HEK293_NF-κB luc reporter” value was 150%. Also, in the assay with human GITR [1], the “EC50, IFN-γ read-out” value is 0.0587 nM and the “Maximal efficacy (%)” value is 86.8%.

B5: A0231051E01 (VHH)
VHH: EVQLVESGGGLVQAGGSLRLSCAASGSIFSFIVMGWYRQAPGEQRALVATVTSGGDTFYVDSVKDRFTISRDNAKNTVYLQMNSLKPEDTAVYFCYFTKVSPYKETTWGQGTLVTVSS
notes: Monovalent Nanobody expressed in E. coli with a triple Flag, HIS6 tag; also called A0231PMP051E01; PA0231PMP051E01.1; not shown: C-terminal triple FLAG and HIS6 tag
For B5, in assay [3], binding was put at a Kd of 78 nM, the koff came out at 0.015 s⁻¹ and the kon turned out to be 190000 M⁻¹ s⁻¹.

B6: A023100101 (VHH)
chain: DVQLVESGGGVVQPGGSLRLSCAASETIFSIDSMAWYRQAPGKQRELVAAITGGGSPNYADSVKGRFTISSDVSKRTVYLQMNSLRPEDTALYYCNAEGQAGWGTALLDYWGQGTLVTVSSGGGGSGGGSEVQLVESGGGVVQPGGSLRLSCAASETIFSIDSMAWYRQAPGKQRELVAAITGGGSPNYADSVKGRFTISSDVSKRTVYLQMNSLRPEDTALYYCNAEGQAGWGTALLDYWGQGTLVTVSSGGGGSGGGSEVQLVESGGGVVQPGGSLRLSCAASETIFSIDSMAWYRQAPGKQRELVAAITGGGSPNYADSVKGRFTISSDVSKRTVYLQMNSLRPEDTALYYCNAEGQAGWGTALLDYWGQGTLVTVSSGGGGSGGGGSGGGGSGGGGSGGGGSGGGGSGGGGSEVQLVESGGGVVQPGGSLRLSCAASGFTFRSFGMSWVRQAPGKGPEWVSSISGSGSDTLYADSVKGRFTISRDNSKNTLYLQMNSLRPEDTALYYCTIGGSLSRSSQGTLVTVSSA
For B6, in the assay with human GITR [2], the “EC50, HEK293_NF-κB luc reporter” value turned out to be 0.02 nM and the “Efficacy (%) … HEK293_NF-κB luc reporter” value came out at 136%. Also, in the assay with human GITR [1], the “EC50, IFN-γ read-out” value stood at 0.0642 nM and the “Maximal efficacy (%)” value worked out at 92.6%.

B7: A0231052E08 (VHH)
VHH: EVQLVESGGGLVQAGGSLRLSCTGSRSIFSTYAMAWHRQAPGKQRELVGFIYWGGTTTYSDSVKGRFTISRDNAKNTMYLQMNSLKPEDAGVYYCNIYGSYALPWGQGTLVTVSS
notes: Monovalent Nanobody expressed in E. coli with a triple Flag, HIS6 tag; also called A0231PMP052E08; PA0231PMP052E08.1; not shown: C-terminal triple FLAG and HIS6 tag
Regarding B7, in assay [3], the Kd was 120 nM, the koff was 0.09 s⁻¹ and the kon stood at 750000 M⁻¹ s⁻¹.

B8: A023100118 (VHH)
chain: DVQLVESGGGVVQPGGSLRLSCAASETIFSIDSMAWYRQAPGKQRELVAAITGGGSPNYADSVKGRFTISSDVSKRTVYLQMNSLRPEDTALYYCNAEGQAGWGTALLDYWGQGTLVTVSSGGGGSGGGSEVQLVESGGGVVQPGGSLRLSCAASETIFSIDSMAWYRQAPGKQRELVAAITGGGSPNYADSVKGRFTISSDVSKRTVYLQMNSLRPEDTALYYCNAEGQAGWGTALLDYWGQGTLVTVSSGGGGSGGGSEVQLVESGGGVVQPGGSLRLSCAASETIFSIDSMAWYRQAPGKQRELVAAITGGGSPNYADSVKGRFTISSDVSKRTVYLQMNSLRPEDTALYYCNAEGQAGWGTALLDYWGQGTLVTVSSGGGGSGGGSEVQLVESGGGVVQPGGSLRLSCAASETIFSIDSMAWYRQAPGKQRELVAAITGGGSPNYADSVKGRFTISSDVSKRTVYLQMNSLRPEDTALYYCNAEGQAGWGTALLDYWGQGTLVTVSSGGGGSGGGSEVQLVESGGGVVQPGGSLRLSCAASETIFSIDSMAWYRQAPGKQRELVAAITGGGSPNYADSVKGRFTISSDVSKRTVYLQMNSLRPEDTALYYCNAEGQAGWGTALLDYWGQGTLVTVSSGGGGSGGGGSGGGGSGGGGSGGGGSGGGGSGGGGSEVQLVESGGGVVQPGGSLRLSCAASGFTFRSFGMSWVRQAPGKGPEWVSSISGSGSDTLYADSVKGRFTISRDNSKNTLYLQMNSLRPEDTALYYCTIGGSLSRSSQGTLVTVSSA
B8: in the assay with human GITR [2], the “EC50, HEK293_NF-κB luc reporter” value is 0.0128 nM and the “Efficacy (%) … HEK293_NF-κB luc reporter” value worked out at 140%. In the assay with human GITR [1], the “EC50, IFN-γ read-out” value was found to be 0.0426 nM and the “Maximal efficacy (%)” value is 95.6%.
